The values that follow come from the nanobody polyreactivity screen of Harvey et al. (2022).

A short description of this data set: yeast display, Sf9 membrane polyspecificity reagent, FACS + sequencing; frameworks hold sequencing errors. The essentials: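 Synthetic nanobody libraries on Saccharomyces cerevisiae BJ5465 were galactose-induced for 36–48 hours, stained 1 hour at 4 °C with 10% biotinylated, detergent-solubilized Sf9 membrane reagent and enriched on streptavidin microbeads. FACS then separated cells into low and high (top ~1%) gates by anti-HA (expression) and streptavidin (reagent binding) fluorescence. Genes were colony-PCR amplified, MiSeq 2 × 250 sequenced and CDR-length filtered. A clone's polyreactivity label is that of its gate of origin.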
Take “QVQLVESGGGLVQAGGSLRLSCAASGRTFYIYAMGWYRQAPGKLRQLVAVIRGSGGSTYYADSVKGRFTISRDNAKYTVYLQMNSQKPEDTAVYYCAARRYQYVWSLYNYWGQGTQVTVSS”: the “polyreactivity (PSR sort gate)” value was “high polyreactivity”.
For “QVQLVESGGGLVQAGGSLRLSCAASGFIFVTNAMGWYRQAPGKERELVAAINWSGGRTYYADSVKGRFTISRDNAKNTVYLQMNSLKPEDTAVYYCAADPYARLGEYGYWGQGTQVTVSS”, the “polyreactivity (PSR sort gate)” value is reported as “low polyreactivity”.
Regarding “QVQLVESGGGLVQAGGSLRISCAASGSIFTANSMGWYRQAPGKERELVAAITWSGGSTYYADSVKGRFTISRDNAKNTVYLQMNSLKPEDPAVYYCAALPLYLGPKRLGYWGQGTQVTVSS”, the “polyreactivity (PSR sort gate)” value is reported as “high polyreactivity”.
With “QVQLVESGGGLVQAGGSLRLSCAASGSIFDSYAMGWSRQAPGKERELVAAISWSGGSTYYADSVKGRFTISRDNAKNTVSLQMNSLKPEDTAVYYCNTDWADYYYYTDYDYWGQGTQVTVSS”, the “polyreactivity (PSR sort gate)” value is recorded as “high polyreactivity”.
Next, “QVQLVESGGGLFQAGGSLRLSCAASGRTFISNPMGWYRQAPGKVWEMVASITSGGSTNYADSVKGRFTISRDNAKNSVYVHMYSQNREDTAVYYCAAEGLVVGWTEEDYWGQGTQVTVSS”: “low polyreactivity”.
As for “QVQLVESGGGLVQAGGSLRLSCAASGSIFRSNDMGWYRKAPGKERELVARITSSVGSTYYADSVKGRFTISRDNAKNTVYLQMNSLKPEVTAVYYCAKRYYHYPYGYRDYDYWGQGTQVTVSS”, the “polyreactivity (PSR sort gate)” value is given as “low polyreactivity”.
For “QVQLVESGGGLVQAGGSLRLSCAASGSTFKPNAMGWYRQAPGKERELVAAISGSGGSTYYADSVKGRFTISRDNAKNTVYLQMNSLKPEDTAVYYCAAYVYTIFSWYDYWGQGTQVTVSS”, the “polyreactivity (PSR sort gate)” value is “high polyreactivity”.
Next, “QVQLVESGGGLVQAGGSLRLSCAASGCIFYPYAMGWYRQAPGKERELVAAITYSGGSTYADSVKGRFTISRDNAKNTVYLQMNSLKPEDTAVYYCNAKFYFYGGTYIVKYDYWGQGTQVTVSS”: “high polyreactivity”.
To “QFQLVESGGGLDQAGGSLRLSCAASGRTFAYYALGWYRQAPGKESELVAAISSGGGSTYYADSVKGRFTISRDNAKYTFYLQMNSLKPEDTAVYYCAKERSSSRSGGTYYYWGQGTQVTVSS” belongs “high polyreactivity”; to “QVQLVESGGGLVQAGGSLRLSCAASGSIFVNNAMGWYRQAPGKERELVAAISSRGGSTYYADSVKGRFTISRDNAKNTVYLQMYSLKPEDTAVYYCAAEYDGPYYSFYPEQRYYWGQGTQVTVSS”, “low polyreactivity”; to “QVQLVESGGGLVHAGGSLRLSCAASGSTLQVYAMGWYREAPGIERELVAVITFSGGRTYYADSVKGRFTISRDTAKNTVYLQMNSLKPEDTADYYPAARYYWGQGTQVTVSS”, “high polyreactivity”.
To “QVQLVESGGGLVQAGGSLRLSCAASGIIFDYYAMGWYRQAPGKERELVAAITTSGGRTYYADSVKGRFTISRDNAKNTVNFQMNSLKPEDTAVYYCAASRPSPRPRYGYWGQGTQVTVSS” belongs “high polyreactivity”; to “QVQIVESWGGLVQAGGSLRLSCDASGSIFTNANGWYRQAPGKERELVAAISSSGGSTYYADSVKGRFTISRDNAKNTVYLQMNSLKPEDTAVYYCAADHYGGRDYWGQGTQVTVSS”, “low polyreactivity”.
Turning to “QVQLVESGGGLVQAGGSLRLSCAASGYTFVRYAMGWYRQAPGKERELVAAISRSGGSTYYADSVKGRFTISRDNAKNTVYLQMNSLKPEDTAVYYCNAYPYSYYDYDYWGQGTQVTVSS”, the “polyreactivity (PSR sort gate)” value is recorded as “high polyreactivity”.
Next, “QVQLVESGGGLVQAGGSLRLSCAASGNHLRSLCLGWYRQAPGKERELVAAITSSGASTYYADSVKGRFTISRDNAKNTVYLQMNSLKPEDTAVYYCAAYLFRRYDYWGQGTQVTVSS”: “low polyreactivity”.
Next, “QVQLVESGGGLVQAGGSLRLSCAASGSTFAYYARGWYRQAPGKERELVASISWRGGSTYYADSVKGRFTISRDNAKNTVYLQMNSLKPEDTAFYYCAAGRFYKWSRSQEYDYWGQGTQVTVSS”: “low polyreactivity”.
In the case of “QVQLVESAGGLVQAGVSLRLSCDASGRIFRHNTMGWYRQAPGKERELVAAIRYSGGRTYYADSVKGRFTISRDNAKNTVYLQMNSLKPEDTAVYYCAKDTGQGYYWGQGTQVTVSS”, the “polyreactivity (PSR sort gate)” value is recorded as “high polyreactivity”.
Next, “QVQLVESGGGLVQAGGSLRLSCAASGSIIVVYAMGWSRQAPGKERELVAAISWGIGSTYYADSVKGRFTISRDNAKNTVYLLMNILKPEETAVYYCAAVTDIVLYDYWGQGTQVTVSS”: “low polyreactivity”; “QVQLVESGGGLVQAGGSLRLSCAASGIIFWAYALGWYRQAPGKERELVAVISRGGSTNYADSVKGPFTISRDNAKNTVYLQMNSLKPEDTAVYYCAARYGWGQGTQVTVSS”: “high polyreactivity”; “QVQLVESGGGLVQAGGSIRLSCAASGSSFVSYAMGWYRQAPGKERELVATISWRGGSTYYADSVKGRFTISRDNAMNTVYLQMNSLKTEDTAVYYCAADVWHSQYYYGYEYWGQGTQVTVSS”: “low polyreactivity”.
To “QVQLVESGGGLVQAGGSLRLSCAASGRISGWYAMGWYRQAPGKERELVASISSSGGSTYYADSVEGRFTISRDNAKNTVYFQMNSLKPEDTAVYYCAVRRYNWSFYRGYDYWGQGTQVTVSS” belongs “high polyreactivity”.
Next, “QVQLVESGGGLVQAGGSLRLSCAASGRTFAYNAMGWYRQAPGKERELVAAIRWSADSTYYADSVKGRFTISRDNAKNTVYLQMNSLKPEDTAVYYCARRRYVGAFSVATLDYWGQGTQVTVSS”: “high polyreactivity”; “QVQLVESGGGLVQAGGSLRFSCAASGSTFQYYAMGWYRQAPGKERELVAAISYGGSRTYYADSVKGRFTISRDNAKNTVYLQMNSLKPEDTAVYYCANEKYRALAPYYYWGQGTQVTVSS”: “high polyreactivity”.
Consider “QVQLVESGGGLVQAGGSLRLSCAASGSTIRRYAMGWSRQAPGKERELVAAITRSGGSTYYADSVKGRFTISRDNAKNTVYLQMNSLKPEDTEVYYCAADTGTGLDWGQGTQVTVSS”, for which the “polyreactivity (PSR sort gate)” value is recorded as “high polyreactivity”.
In the case of “QVQLVESGGGLVQAGGSLRLSCAASGNIFYSYAMGWYRQAPGKERELVAAISSSGGGTYYADSVKGRFTISRDNAKNTVYLEMNSLKPEDTAVYYCATTARPTRYSSVRYYYWGQGTQVSVSS”, the “polyreactivity (PSR sort gate)” value is “high polyreactivity”.
As for “QVQLVESGGGLVQAGGSLRLTCAASGIIFFKNAMGWYRQAPGKERELVASINRSGGSTYYADSVKGRFTISRDNAKNTGYFQMNSLKPEDTAVFYCNARLTLRSYDYWGLGTQVTVSS”, the “polyreactivity (PSR sort gate)” value was “low polyreactivity”.
As for “QVQLVESGGALVQAGGSLRLSCAASGNTFRGYTMGWYRQAPGKEREFVAAISWSGGRTNYADSVKGRFTISRDNAKNTVYLQMNSLTPEDTAVYYCGRDYRARRWGMDYWGQGTQVTVSS”, the “polyreactivity (PSR sort gate)” value is “high polyreactivity”.
As for “QVQLVESGGGLVQAGGSLRLSCAASGRTFRAYAMGWYRQAPGKERELVAAIRSGTSTNYADSVKGRFTISRDNAKNTVYLQMNSLKPEDTAVYYCAAEWRKTYRYFTFGYWGQGTQVTVSS”, the “polyreactivity (PSR sort gate)” value is “high polyreactivity”.
With “QVQLVESGGGLVQAGGSLRVSCAASGLTFGDYTMGWYRQAPGKERELVAAISTAGGSTYYADSVKGRFTISREHANNTVYLHMNSLKPEDTAVYYCNARRTHTRSHYYYWGQGTQVTVSS”, the “polyreactivity (PSR sort gate)” value is on record as “high polyreactivity”.
In the case of “QVQLVESGGGLVQAGGSLRLSCAASGGTFRVYAMGWYRQAPGKERELVAAISSGGSTNYADSVKGRFTISRDNAKNTVYLQMNSLKPEDTAVYYCNAKYRYRFARSPIYYYWGQGTQVTVSS”, the “polyreactivity (PSR sort gate)” value was “low polyreactivity”.
To “QVQLVESGGGLVQAGGSLRLSCAGSGRIFTDYTMGWYRQAPGQERELVAAISYSGGSTYYADSVKGRFTISRDNAKNTVYLQMNSLKPEDTAVYYCNKDYYLHEGYGYWGQGTQVTVSS” belongs “low polyreactivity”; to “QVQHVESGGGLVQAGGSLRLSCAASGRTFTHYAMGWYRQAPGKERELVAVITTGGSTYYADSVKGRFTISRDNAKNTVYLQMNSLKPEDTAVYYCAATALSGLGYWGQGTQVTVSS”, “low polyreactivity”; to “QVQLVESGGGLVQAGGSLRLSCAASGSTFYYYAMGWYRQAPGKERELVAAISISDNSTYYADSVKGRFTISRDNAKNTVYLQMNSLKPEDTAVYYCAAYGWYAHDDSTYDYWGQGTQVTVSS”, “low polyreactivity”.
Next, “QVQLVESGGGLVQAGGILRLSCAASGYNFKYYAMGWYRQAPGKERELVAAISRSGGSTYYADSVKGRFTISRDNAKNTVYLQMNSLTPEDTAVYYCAAYTHYAYGHDYWGQGTQVTVSS”: “high polyreactivity”; “QVQLVESGGGLDQAGGSLRLSCAASGIIFWEYAMGWYRQAPGKERELVAAINARGTRTYYADSVKGRFTISRDNAKNTVYLQMNSLKPEDTAVYYCAADRYGWTRYDSWGQGTQVTVSS”: “high polyreactivity”; “QVQLVESGGGLVQAGGSLRLSCAASGSTFKVYAMGWYRQAPGKERELVATISKSGSTYADSVKGRFTISRDNAKNTVYLQMNCLKPEDTAVYYCAADLYTYPRTRRRAYGYWGQGTQVTVSS”: “high polyreactivity”.
Turning to “QVQLVESGGGLVQAAGSLRLSCAASGQFFAYYAMGWYRQATGKEREFVAAISWTGGSTYYADSVKGRFTISRDYAKKTVYLLMNSLKPEDTGVYYCAAVSNHLRYVASRYSYYYWGQGTQVTVSS”, the “polyreactivity (PSR sort gate)” value was “high polyreactivity”.
As for “QVQLVESGGGLDQAGGSLRLSCAASGGIFDDYAKGRYRQAPRKERELVAAISSSGGSTYYADSVKGRFTISLDNAKNTVYLQMNSLKPEYTAVYLCNADSRGSFGYWGQGTQVTVSS”, the “polyreactivity (PSR sort gate)” value is recorded as “high polyreactivity”.
For the sequence “QVQLVESGGGLVQAGGSLRLSCAASGSIFPYYAMGWYRPAPGTERELVAAISRGGGTTYYADSVKGRFTISRDNAKNTVYLQMNSLKPEDTAVYYCAARQWRISTPYDYWGQGTQVTVSS”, the “polyreactivity (PSR sort gate)” value is listed as “high polyreactivity”.
As to “QVQLVESGGGLVQAGGSLRLSCAASGRIFRYYAMGWYRQAPAKERELVASISRRGGSTNYADSVKGRFTISRDNAKNTVYLQMNSLKPEDTAVYYCNAENWSPRGLYNYWGQGTQVTVSS”, the “polyreactivity (PSR sort gate)” value is listed as “high polyreactivity”.
To “QVQLVESGGGLVQAGGSLRLSCAASGRIFTTYAMGWYRPAPGKERELVAAISQNGGSTYYADSVKGRFTISRDNAKNTVFLQMNSLKPEDTAVYYCNAGPAGYYDYDYWGQGTLVTVSS” belongs “low polyreactivity”.
